Results on 6 molecules are retold here after patent publication US20190247399A1, “COMBINATION OF AN ANTI-CD20 ANTIBODY, PI3 KINASE-DELTA INHIBITOR, AND ANTI-PD-1 OR ANTI-PD-L1 ANTIBODY FOR TREATING HEMATOLOGICAL CANCERS” (TG Therapeutics, Inc., priority 2016, published 2019).

Data set [1] in a line: oral TGR-1202 under fasted and fed conditions, pharmacokinetics. Conditions: in vivo, 200 mg, single oral dose of 200 mg; for AUC(0-inf): read-out: AUC0-inf, Geometric LS Means; for AUC(0-t): read-out: AUC0-t, Geometric LS Means; for Cmax: read-out: Cmax, Geometric LS Means.
Data set [2] in a line: micronized vs non-micronized TGR-1202 formulations, pharmacokinetics. Particulars: in vivo, po, 200 mg, single oral dose of 200 mg; for AUC(0-inf): read-out: AUC0-inf, Geometric LS Means; for AUC(0-t): read-out: AUC0-t, Geometric LS Means; for Cmax: read-out: Cmax, Geometric LS Means.
Data set [3] relates to patients with relapsed and refractory hematologic malignancies. Conditions: single agent; relapsed or refractory hematologic malignancies; cited from earlier work.
The next data set has as its target PI3K isoforms (Human) α (Homo sapiens, UniProt P42336). The data set can be described thus: biochemical.
The next data set addresses PI3K isoforms (Human) β (Homo sapiens, UniProt P42338). Description: biochemical.
Another data set addresses PI3K isoforms (Human) γ (Homo sapiens, UniProt P48736). Description: biochemical.
The subject of another data set is patients with CLL. Conditions: pembrolizumab alone; cited from earlier work.
Data set [4] has as its target T1, PD-L1 (Homo sapiens, UniProt Q9NZQ7). The data set can be described thus: Octet antibody binding kinetics. On the procedure: (§1) FIGS. 2A-2C are graphs showing the binding kinetics of exemplary anti-PD-L1 antibody CTI-48 against human PD-L1 (FIG. 2A), mouse PD-L1 (FIG. 2B), and cyno PD-L1 (FIG. 2C).
(§2) Octet data analysis was used in determining affinity measurements to assess antibody binding kinetics. 2 mL of the loading sample was prepared at 20 ug/mL (default concentration) in kinetic buffer. Aliquot at least 200 uL into a black 96-well plate. Concentration ranges for the sample were based on the estimated KD of the interaction (if available). […] A 7-point dilution was made into the sample column using kinetic buffer as the sample diluent. The last well of the sample column was used as a reference well later in data analysis, should only contain kinetic buffer.
(§3) Biosensors were hydrated in kinetic buffer (lx PBS, 0.1% BSA, 0.02% Tween20, 0.05% Sodium Azide) at room temperature for 10 minutes.
In general terms: In BLI a coated tip is dipped into the sample, and binding shifts an interference pattern.

The next data set has as its target cynoPDL1. The data set can be described thus: Octet antibody binding kinetics. Also on record: species or system cyno. On the procedure:
as §1, §2, §3

Data set [5] has as its target T1, PD-L1. Description: ForteBio affinity measurements. Particulars: 100 nM antigen, 1:1 binding model. On the procedure: ForteBio affinity measurements were performed generally as previously described (see, e.g., Estep, P. et al., mAbs 5:270-278 (2013)). Briefly, ForteBio affinity measurements were performed by loading IgGs on-line onto AHQ sensors. Sensors were equilibrated off-line in assay buffer for 30 minutes and then monitored on-line for 60 seconds for baseline establishment. Sensors with loaded IgGs were exposed to 100 nM antigen for 5 minutes; afterwards, they were transferred to assay buffer for 5 minutes for off-rate measurement. Kinetics were analyzed using the 1:1 binding model.

A further data set concerns SUDHL-1 lymphoma cells. The data set can be described thus: ADCC activity of anti-PD-L1 antibodies. Conditions: PD-L1+ lymphoma cells with primary NK cells. The data set is classed as cell-based. Here is the method:
Reporter bioassays were performed in order to determine antibody-dependent cell—mediates cytotoxicity (ADCC) of the disclosed anti-PD-L1 antibodies. The assays utilized SUDHL-1 lymphoma cells and donor PBMCs. Various antibodies were tested at concentrations of 1 or 3 μg/ml.
The results of this study, which are shown for exemplary anti-PD-L1 antibody CTI-48 in FIG. 3, are represented by percent cytotoxicity following a 4 hour incubation with the disclosed antibodies.

For another data set, the system named is PD-1:PD-L1 ligation. Description: immunoblockade reporter (NFAT) assay, PD1/PD-L1 Blockade Assay Kit. The data set is classed as cell-based. Conditions: Jurkat PD-1 Effector cells and aAPC PD-L1 cells.
Data set [6] addresses T2, binding of PD-L1 and B7.1 (Homo sapiens, UniProt Q9NZQ7).
T2 construct: purchased
Description: PD-L1/B7.1 inhibitor screening assay. Particulars: PD-L1 coated plate, B7.1-biotin. From the text: A commercially available assay kit was used to screen and profile the interaction of the disclosed antibodies and the PD-L1/B7.1 interaction. The kit came in a 96-well format with biotin-labeled B7-1 (CD80), purified PD-L1, streptavidin-labeled HRP, and assay buffer for 100 binding reactions. The kit was used to detect biotin-labeled B7.1 by streptavidin-HRP.
First, PD-L1 was coated on a 96-well plate. Next, either one of the disclosed antibodies, a positive control, a substrate control, or a blank was added to each well and incubated prior to the addition of B7.1-biotin. Finally, the plate was treated with streptavidin-HRP followed by addition of an HRP substrate to produce chemiluminescence, which can then be measured by a chemiluminescence reader.

In the next data set the test system is IFN-γ production. The data set can be described thus: IFN-γ production in mixed lymphocyte reaction (MLR) cultures. The data set is classed as cell-based. Conditions: 4-day MLR culture, antibodies at 10 μg/mL, over control levels. Here is the method: FIG. 6 is a bar graph showing the effect of the disclosed PD-L1 antibodies on IFN-γ production. Antibodies were dosed into mixed lymphocyte reaction (MLR) cultures at a concentration of 10 μg/mL. Data were normalized to vehicle control and are presented as combined mean+SEM (n=6). *p<0.05**p<0.01,***p<0.001 indicates statistical significance when compared to appropriate isotype control (hIgG1) using Ordinary one-way ANOVA with Dunnett's multiple comparison post-hoc test.
Antibodies were dosed into mixed lymphocyte reaction (MLR) cultures in order to determine the effects of the disclosed antibodies on IFN-γ production. The fold change in production of IFN-γ was determined after a 4-day MLR culture with antibodies at a concentration of 10 μg/mL. […] Further, many of the tested PD-L1 antibodies elicited a statistically significant increase in IFN-γ production, including a roughly 10-fold increase by CTI-33 and CTI-55 over control levels.

Data set [7] addresses T1, PD-L1. Particulars: cited from earlier work.
The target in data set [8] is T3, PD-L1 antigen of the ForteBio affinity measurement (Example 7) (UniProt Q9NZQ7 19-238, limits assumed). The data set can be described thus: ForteBio BLI, IgG on AHQ sensors, 100 nM antigen, 1:1 model.
Data set [9] deals with T3, PD-L1 antigen of the ForteBio affinity …. The data set can be described thus: ForteBio BLI, IgG on AHQ sensors, 100 nM antigen, 1:1 model, monovalent.
Data set [10] has as its target T4, PD-L1 expressed on transfected CHO cells (UniProt Q9NZQ7 19-290).
T4 construct: whole, on cells; also called PD-L1+cells; PD-L-1+cells
Description: competitive FACS on PD-L1+ CHO cells; competitor biotin-labeled PD-1 at 1 µg/ml.

Changes are numbered by the printed parent chain. Structures can show the parent of a compound that is named as a salt. Bounds are passed on as bounds.

T3 sequence (Q9NZQ7 19-238 limits assumed): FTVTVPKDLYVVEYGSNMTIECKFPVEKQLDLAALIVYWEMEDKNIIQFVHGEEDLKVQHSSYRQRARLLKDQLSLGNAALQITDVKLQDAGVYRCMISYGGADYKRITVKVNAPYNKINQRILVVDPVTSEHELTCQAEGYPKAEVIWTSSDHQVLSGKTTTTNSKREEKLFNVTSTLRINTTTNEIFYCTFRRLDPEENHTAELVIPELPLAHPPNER
T1 sequence (Q9NZQ7 19-290): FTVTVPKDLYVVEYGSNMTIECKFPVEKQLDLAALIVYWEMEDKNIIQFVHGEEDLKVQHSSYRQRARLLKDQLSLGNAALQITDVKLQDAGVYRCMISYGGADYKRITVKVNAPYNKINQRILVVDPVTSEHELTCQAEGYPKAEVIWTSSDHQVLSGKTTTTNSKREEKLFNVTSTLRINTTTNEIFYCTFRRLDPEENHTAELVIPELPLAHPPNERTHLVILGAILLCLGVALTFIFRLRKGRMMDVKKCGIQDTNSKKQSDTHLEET
PI3K isoforms (Human) γ, sequence (P48736 whole entry, canonical isoform): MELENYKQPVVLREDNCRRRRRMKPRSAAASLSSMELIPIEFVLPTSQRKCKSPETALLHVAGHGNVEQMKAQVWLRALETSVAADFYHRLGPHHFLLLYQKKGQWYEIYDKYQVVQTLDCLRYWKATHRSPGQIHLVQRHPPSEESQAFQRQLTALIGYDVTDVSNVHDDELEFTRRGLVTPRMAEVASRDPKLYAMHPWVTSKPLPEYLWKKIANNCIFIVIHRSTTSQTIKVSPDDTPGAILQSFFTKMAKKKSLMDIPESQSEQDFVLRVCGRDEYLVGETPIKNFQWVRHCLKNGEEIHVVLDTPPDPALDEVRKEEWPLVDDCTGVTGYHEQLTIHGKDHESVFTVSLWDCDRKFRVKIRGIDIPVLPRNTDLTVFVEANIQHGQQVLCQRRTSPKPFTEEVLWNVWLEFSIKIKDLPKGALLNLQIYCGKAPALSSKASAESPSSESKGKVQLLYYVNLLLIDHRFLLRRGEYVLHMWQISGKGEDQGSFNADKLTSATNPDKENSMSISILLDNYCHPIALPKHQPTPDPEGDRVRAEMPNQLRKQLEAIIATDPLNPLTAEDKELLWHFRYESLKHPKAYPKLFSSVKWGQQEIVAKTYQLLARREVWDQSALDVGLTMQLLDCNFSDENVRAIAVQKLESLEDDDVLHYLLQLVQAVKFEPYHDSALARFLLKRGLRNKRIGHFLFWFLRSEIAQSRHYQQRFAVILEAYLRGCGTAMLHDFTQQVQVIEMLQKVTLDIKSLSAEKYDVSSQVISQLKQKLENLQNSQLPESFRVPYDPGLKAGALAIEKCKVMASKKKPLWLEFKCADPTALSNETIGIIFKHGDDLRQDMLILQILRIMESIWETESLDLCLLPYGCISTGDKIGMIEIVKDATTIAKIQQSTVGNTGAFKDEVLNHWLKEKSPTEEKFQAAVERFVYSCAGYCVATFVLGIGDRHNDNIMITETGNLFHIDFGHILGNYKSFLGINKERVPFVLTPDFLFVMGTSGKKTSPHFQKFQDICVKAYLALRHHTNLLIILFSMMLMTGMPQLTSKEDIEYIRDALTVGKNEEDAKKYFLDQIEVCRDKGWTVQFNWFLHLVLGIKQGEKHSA
T2 sequence (Q9NZQ7 19-238 limits assumed): as the sequence (Q9NZQ7 19-238 limits assumed) above
PI3K isoforms (Human) α, sequence (P42336 whole entry, canonical isoform): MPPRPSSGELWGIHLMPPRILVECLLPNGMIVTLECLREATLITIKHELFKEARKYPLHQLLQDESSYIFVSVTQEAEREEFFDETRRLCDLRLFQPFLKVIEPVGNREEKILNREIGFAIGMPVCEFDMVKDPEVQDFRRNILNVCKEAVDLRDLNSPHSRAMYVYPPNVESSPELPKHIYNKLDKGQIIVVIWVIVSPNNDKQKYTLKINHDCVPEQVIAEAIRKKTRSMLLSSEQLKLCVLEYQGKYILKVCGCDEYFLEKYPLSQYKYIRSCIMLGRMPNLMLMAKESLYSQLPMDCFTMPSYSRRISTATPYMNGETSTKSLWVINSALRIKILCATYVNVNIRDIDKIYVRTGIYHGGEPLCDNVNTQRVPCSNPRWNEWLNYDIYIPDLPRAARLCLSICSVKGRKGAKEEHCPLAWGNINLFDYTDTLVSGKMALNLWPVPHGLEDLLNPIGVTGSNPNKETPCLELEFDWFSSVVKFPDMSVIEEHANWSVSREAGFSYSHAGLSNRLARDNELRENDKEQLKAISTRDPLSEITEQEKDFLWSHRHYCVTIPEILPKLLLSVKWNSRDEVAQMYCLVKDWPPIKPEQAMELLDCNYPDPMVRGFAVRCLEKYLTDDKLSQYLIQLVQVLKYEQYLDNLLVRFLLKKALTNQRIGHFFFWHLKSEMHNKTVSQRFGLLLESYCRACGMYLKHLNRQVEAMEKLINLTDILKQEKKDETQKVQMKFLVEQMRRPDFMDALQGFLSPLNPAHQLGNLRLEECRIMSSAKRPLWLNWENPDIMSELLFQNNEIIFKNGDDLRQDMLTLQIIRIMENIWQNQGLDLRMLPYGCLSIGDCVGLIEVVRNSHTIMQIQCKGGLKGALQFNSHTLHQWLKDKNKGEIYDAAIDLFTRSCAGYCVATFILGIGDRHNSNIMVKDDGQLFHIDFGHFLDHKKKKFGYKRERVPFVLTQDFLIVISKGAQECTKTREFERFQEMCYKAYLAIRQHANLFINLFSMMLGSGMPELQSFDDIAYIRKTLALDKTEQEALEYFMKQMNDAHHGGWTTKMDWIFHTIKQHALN
PI3K isoforms (Human) α, sequence (P27986 whole entry partner, canonical isoform): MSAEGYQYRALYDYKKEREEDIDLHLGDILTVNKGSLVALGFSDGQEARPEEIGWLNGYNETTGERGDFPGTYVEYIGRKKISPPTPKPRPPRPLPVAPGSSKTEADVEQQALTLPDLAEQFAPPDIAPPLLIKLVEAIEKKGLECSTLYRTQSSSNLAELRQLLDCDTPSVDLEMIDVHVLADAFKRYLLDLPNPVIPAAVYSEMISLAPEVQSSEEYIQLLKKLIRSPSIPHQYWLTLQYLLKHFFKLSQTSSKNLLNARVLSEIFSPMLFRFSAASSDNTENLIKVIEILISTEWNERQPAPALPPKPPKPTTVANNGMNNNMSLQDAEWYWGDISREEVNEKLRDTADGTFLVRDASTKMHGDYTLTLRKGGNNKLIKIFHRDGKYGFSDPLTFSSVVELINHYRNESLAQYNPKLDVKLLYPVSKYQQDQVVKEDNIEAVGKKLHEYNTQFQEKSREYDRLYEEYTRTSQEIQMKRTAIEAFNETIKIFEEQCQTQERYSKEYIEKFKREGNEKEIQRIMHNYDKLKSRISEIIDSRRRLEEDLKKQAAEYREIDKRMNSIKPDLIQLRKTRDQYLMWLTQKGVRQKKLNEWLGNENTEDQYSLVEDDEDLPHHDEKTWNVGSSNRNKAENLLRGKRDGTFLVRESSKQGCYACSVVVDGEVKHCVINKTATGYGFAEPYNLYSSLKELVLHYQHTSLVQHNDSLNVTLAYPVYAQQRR
T4 sequence (Q9NZQ7 19-290): as the sequence (Q9NZQ7 19-290) above
PI3K isoforms (Human) β, sequence (P42338 whole entry, canonical isoform): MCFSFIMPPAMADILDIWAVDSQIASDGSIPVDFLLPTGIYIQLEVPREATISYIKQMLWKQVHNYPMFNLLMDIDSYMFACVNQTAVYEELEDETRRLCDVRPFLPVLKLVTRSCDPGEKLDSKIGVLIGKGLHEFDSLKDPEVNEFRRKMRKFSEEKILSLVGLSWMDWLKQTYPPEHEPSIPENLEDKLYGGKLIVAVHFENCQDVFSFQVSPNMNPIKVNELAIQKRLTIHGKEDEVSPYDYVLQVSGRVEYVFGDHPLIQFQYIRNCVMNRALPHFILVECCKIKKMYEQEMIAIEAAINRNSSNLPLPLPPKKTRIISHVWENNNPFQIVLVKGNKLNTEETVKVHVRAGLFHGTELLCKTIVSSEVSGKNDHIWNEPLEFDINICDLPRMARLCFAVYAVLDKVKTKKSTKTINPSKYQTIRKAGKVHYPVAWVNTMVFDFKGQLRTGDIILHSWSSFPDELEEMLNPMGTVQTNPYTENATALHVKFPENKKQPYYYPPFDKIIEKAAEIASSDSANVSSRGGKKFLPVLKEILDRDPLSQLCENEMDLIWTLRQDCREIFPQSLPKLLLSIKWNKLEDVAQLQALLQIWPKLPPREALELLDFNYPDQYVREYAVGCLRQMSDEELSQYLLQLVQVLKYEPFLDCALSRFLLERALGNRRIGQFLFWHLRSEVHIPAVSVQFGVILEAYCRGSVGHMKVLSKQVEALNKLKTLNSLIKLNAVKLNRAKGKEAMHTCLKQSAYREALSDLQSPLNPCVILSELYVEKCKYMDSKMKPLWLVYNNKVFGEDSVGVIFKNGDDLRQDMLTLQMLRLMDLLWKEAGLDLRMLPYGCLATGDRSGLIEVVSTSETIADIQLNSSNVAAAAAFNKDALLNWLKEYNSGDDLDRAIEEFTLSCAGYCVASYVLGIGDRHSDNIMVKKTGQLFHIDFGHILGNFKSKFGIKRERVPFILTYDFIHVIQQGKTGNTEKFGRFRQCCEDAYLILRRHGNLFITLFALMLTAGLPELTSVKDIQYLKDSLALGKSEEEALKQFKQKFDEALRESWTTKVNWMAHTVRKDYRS
PI3K isoforms (Human) β, sequence (P27986 whole entry partner, canonical isoform): as the sequence (P27986 whole entry partner, canonical isoform) above
Description for PD-1:PD-L1 ligation: Immunoblockade assays were performed using a PD1/PD-L1 Blockade Assay Kit (Promega, CS187111) in 96 well plates. Three major events occur in the assay. Event 1: TCR-mediated NFAT activation occurs when engineered Jurkat PD-1 Effector cells and aAPC (artificial antigen presenting cell) PD-L1 cells are engaged through TCR/TCR activator interaction. Event 2: Inhibition of NFAT signal by PD-1:PD-L1 ligation when no blocking antibodies are present. Event 3: Recovery of NFAT signal by addition of anti-PD-1 or anti-PD-L1 blocking antibody.
The day before assay, 25 mL of cell recovery medium (10% FBS/F-12) was made in 50 mL conical tubes for Thaw-and-Use PD-L1 cells by adding 2.5 mL FBS to 22.5 mL F-12. One vial of Thaw-and-Use PD-L1 cells (CS187103) was removed from freezer storage and transferred to the bench on dry ice. The vial was thawed in a 37° C. water bath until cells were just thawed (about 3-4 minutes). The cell suspension was gently mixed in the vial by pipetting up and down. All the cells (0.5 mL) were transferred to a tube labeled “PD-L1 cells” containing 14.5 mL cell recovery medium, followed by gentle inversions. […]
Thaw-and-Use PD-1 Effector cells (CS187105) were transferred into the assay plates, and the plates were incubated for six hours at 37° C. in CO2 incubator. […] Luminescence was measured in a POLARstar Omega plate reader with 0.5 second integration.

Broadly, the Cmax is the peak of the concentration-time curve. In general, IC50 refers to the concentration that gives 50% inhibition. For `CC(C)Oc1ccc(-c2nn([C@@H](C)c3oc4ccc(F)cc4c(=O)c3-c3cccc(F)c3)c3ncnc(N)c23)cc1F` [TGR-1202, (S)-2-(1-(4-amino-3-(3-fluoro-4-isopropoxyphenyl)-1H-pyrazolo[3,4-d]pyrim-idin-1-yl)ethyl-6-fluoro-3-(3-fluorophenyl)-4H-chromen-4-one p-toluenesulfonic acid (PTSA) salt], the AUC(0-inf) in data set [1] (Fasting) was 8390 ng·h/mL; in [1] (Fed) it was 14000 ng·h/mL; in data set [2] (Micronized Formulation), 12400 ng·h/mL; in [2] (Non-Micronized Formulation) it was 7720 ng·h/mL. The AUC(0-t) in [1] (Fasting) was 6030 ng·h/mL; in data set [1] (Fed) it was 9690 ng·h/mL; in data set [2] (Micronized Formulation) it was 9440 ng·h/mL; in data set [2] (Non-Micronized Formulation) it was 5910 ng·h/mL. The maximum concentration (Cmax) in [1] (Fasting) amounted to 177 ng/mL; in [1] (Fed), 483 ng/mL; in [2] (Micronized Formulation), 372 ng/mL; in data set [2] (Non-Micronized Formulation), 166 ng/mL. In addition, in data set [3], the hepatic toxicity result is “no reported hepatic toxicity”. The tolerability result in data set [3] is “well-tolerated”. Also, the values for the concentration for half-maximal inhibition (IC50) against PI3K isoforms (Human) α, on PI3K isoforms (Human) β and against PI3K isoforms (Human) γ were over 10 µM, 1120 nM and 1060 nM, respectively.

Regarding “pembrolizumab: humanized monoclonal IgG4 kappa antibody directed against PD-1”, in the data set on patients with CLL, the ORR was 0% and the “median PFS” value was 2.4 months.

B1: CTI-48: fully human anti-PD-L1 IgG1; HCDR1-3 SEQ ID NO: 11, 19, 27; LCDR1-3 SEQ ID NO: 31, 33, 35 (antibody, chains of the INN, looked up, V domains shown)
VH: EVQLVQSGAEVKKPGSSVKVSCKASGGTFSRSAISWVRQAPGQGLEWMGVIIPAFGEANYAQKFQGRVTITADESTSTAYMELSSLRSEDTAVYYCARGRQMFGAGIDFWGQGTLVTVSS
VL: NFMLTQPHSVSESPGKTVTISCTRSSGSIDSNYVQWYQQRPGSAPTTVIYEDNQRPSGVPDRFSGSIDSSSNSASLTISGLKTEDEADYYCQSYDSNNRHVIFGGGTKLTVL
For orientation: Kd means the concentration at which binding is half-saturated. A word on the koff: it is the rate constant with which the complex falls apart. With B1, in the data set with PD-L1 [4], the Kd is 0.847 nM, the kdis is 0.00061 L/s and the kon was 7.20E+05 l/Ms. On cynoPDL1, this molecule showed a Kd of 0.555 nM, a kdis of 0.000635 L/s and a kon of 1.14E+06 l/Ms. Moreover, in the data set with PD-L1 [5], the koff stood at 0.000633 s⁻¹ and the kon amounted to 768000 M⁻¹ s⁻¹. Further, the Kd with PD-L1 [5] (read-out: IgG KD (M) Monovalent) is 8.24e-10 M. The ADCC activity result with SUDHL-1 lymphoma cells was “exhibits ADCC activity”. Further, the “EC50, recovery of NFAT signal” value in the data set on PD-1:PD-L1 ligation was 77.5 ng/mL. Moreover, the “IC50 for binding inhibition” value in data set [6] is 0.1816 µg/mL. Besides, the “fold change in production of IFN-γ” value in the data set with IFN-γ production was “comparable response to a clinical control mAb”. In addition, the “binding affinity for PD-L1” value in the data set with PD-L1 [7] is “sub-nanomolar”.

B2: CTI-07 (antibody, V domains shown)
VH: EVQLVQSGGEVKKPGASVKVSCKASGYTLSSHGITWVRQAPGQGLEWMGWISAHSGHASNAQKVEDRVTMTTDTSTNTAYMELRSLTADDTAVYYCARVHAALYYGMDVWGQGTLVTVSS
VL: LSVLTQPPSVSVAPGQTARITCGGNNIGSKGVHWYQQKPGQAPVLVVYDDSDRPSGIPERFSGSNSGNTATLTISRVEAGDEADYYCQVWDSSSDHWVFGGGTKLTVL
In data set [8], B2 came in with an off-rate constant (koff) of 0.0392 s⁻¹ and a kon of 492000 M⁻¹ s⁻¹. The molecule further displayed a Kd in data set [9] of 79.7 nM.

B3: CTI-57 (antibody, V domains shown)
VH: B2 VH with H100W, A101R, Y105H
VL: B2 VL
Consider B3, for which, in data set [8], the dissociation rate constant (koff) was determined as 0.00045 s⁻¹ and the kon came to 520000 M⁻¹ s⁻¹. The same molecule had an equilibrium dissociation constant (Kd) in [9] of 0.86 nM.

B4: CTI-58 (antibody, V domains shown)
VH: B2 VH with Y105H
VL: B2 VL
In [8], B4 yielded an off-rate constant (koff) of 0.0111 s⁻¹ and a kon of 461000 M⁻¹ s⁻¹. In data set [9], this molecule registered a dissociation constant (Kd) of 24.1 nM. In [10], this molecule gave an IC50 of 3.46 µg/mL.
